Here are results for 2 molecules from paper doi:10.1101/2022.12.10.519866 (bioRxiv, 2022).

For orientation: stoichiometry N means the number of molecules, sites or subunits per partner or assembly.

What all share (experiment): cryo-EM structure
Series [1] deals with 3×FLAG-tagged full-length mouse BIRC6 (mouse) (UniProt O88738).
Series [2] addresses 3×FLAG-tagged full-length mouse BIRC6 (mouse, UniProt O88738 1-4882).
The series “cryo-EM structure” concerns the molecule itself.

3×FLAG-tagged full-length mouse BIRC6, sequence (O88738 whole entry): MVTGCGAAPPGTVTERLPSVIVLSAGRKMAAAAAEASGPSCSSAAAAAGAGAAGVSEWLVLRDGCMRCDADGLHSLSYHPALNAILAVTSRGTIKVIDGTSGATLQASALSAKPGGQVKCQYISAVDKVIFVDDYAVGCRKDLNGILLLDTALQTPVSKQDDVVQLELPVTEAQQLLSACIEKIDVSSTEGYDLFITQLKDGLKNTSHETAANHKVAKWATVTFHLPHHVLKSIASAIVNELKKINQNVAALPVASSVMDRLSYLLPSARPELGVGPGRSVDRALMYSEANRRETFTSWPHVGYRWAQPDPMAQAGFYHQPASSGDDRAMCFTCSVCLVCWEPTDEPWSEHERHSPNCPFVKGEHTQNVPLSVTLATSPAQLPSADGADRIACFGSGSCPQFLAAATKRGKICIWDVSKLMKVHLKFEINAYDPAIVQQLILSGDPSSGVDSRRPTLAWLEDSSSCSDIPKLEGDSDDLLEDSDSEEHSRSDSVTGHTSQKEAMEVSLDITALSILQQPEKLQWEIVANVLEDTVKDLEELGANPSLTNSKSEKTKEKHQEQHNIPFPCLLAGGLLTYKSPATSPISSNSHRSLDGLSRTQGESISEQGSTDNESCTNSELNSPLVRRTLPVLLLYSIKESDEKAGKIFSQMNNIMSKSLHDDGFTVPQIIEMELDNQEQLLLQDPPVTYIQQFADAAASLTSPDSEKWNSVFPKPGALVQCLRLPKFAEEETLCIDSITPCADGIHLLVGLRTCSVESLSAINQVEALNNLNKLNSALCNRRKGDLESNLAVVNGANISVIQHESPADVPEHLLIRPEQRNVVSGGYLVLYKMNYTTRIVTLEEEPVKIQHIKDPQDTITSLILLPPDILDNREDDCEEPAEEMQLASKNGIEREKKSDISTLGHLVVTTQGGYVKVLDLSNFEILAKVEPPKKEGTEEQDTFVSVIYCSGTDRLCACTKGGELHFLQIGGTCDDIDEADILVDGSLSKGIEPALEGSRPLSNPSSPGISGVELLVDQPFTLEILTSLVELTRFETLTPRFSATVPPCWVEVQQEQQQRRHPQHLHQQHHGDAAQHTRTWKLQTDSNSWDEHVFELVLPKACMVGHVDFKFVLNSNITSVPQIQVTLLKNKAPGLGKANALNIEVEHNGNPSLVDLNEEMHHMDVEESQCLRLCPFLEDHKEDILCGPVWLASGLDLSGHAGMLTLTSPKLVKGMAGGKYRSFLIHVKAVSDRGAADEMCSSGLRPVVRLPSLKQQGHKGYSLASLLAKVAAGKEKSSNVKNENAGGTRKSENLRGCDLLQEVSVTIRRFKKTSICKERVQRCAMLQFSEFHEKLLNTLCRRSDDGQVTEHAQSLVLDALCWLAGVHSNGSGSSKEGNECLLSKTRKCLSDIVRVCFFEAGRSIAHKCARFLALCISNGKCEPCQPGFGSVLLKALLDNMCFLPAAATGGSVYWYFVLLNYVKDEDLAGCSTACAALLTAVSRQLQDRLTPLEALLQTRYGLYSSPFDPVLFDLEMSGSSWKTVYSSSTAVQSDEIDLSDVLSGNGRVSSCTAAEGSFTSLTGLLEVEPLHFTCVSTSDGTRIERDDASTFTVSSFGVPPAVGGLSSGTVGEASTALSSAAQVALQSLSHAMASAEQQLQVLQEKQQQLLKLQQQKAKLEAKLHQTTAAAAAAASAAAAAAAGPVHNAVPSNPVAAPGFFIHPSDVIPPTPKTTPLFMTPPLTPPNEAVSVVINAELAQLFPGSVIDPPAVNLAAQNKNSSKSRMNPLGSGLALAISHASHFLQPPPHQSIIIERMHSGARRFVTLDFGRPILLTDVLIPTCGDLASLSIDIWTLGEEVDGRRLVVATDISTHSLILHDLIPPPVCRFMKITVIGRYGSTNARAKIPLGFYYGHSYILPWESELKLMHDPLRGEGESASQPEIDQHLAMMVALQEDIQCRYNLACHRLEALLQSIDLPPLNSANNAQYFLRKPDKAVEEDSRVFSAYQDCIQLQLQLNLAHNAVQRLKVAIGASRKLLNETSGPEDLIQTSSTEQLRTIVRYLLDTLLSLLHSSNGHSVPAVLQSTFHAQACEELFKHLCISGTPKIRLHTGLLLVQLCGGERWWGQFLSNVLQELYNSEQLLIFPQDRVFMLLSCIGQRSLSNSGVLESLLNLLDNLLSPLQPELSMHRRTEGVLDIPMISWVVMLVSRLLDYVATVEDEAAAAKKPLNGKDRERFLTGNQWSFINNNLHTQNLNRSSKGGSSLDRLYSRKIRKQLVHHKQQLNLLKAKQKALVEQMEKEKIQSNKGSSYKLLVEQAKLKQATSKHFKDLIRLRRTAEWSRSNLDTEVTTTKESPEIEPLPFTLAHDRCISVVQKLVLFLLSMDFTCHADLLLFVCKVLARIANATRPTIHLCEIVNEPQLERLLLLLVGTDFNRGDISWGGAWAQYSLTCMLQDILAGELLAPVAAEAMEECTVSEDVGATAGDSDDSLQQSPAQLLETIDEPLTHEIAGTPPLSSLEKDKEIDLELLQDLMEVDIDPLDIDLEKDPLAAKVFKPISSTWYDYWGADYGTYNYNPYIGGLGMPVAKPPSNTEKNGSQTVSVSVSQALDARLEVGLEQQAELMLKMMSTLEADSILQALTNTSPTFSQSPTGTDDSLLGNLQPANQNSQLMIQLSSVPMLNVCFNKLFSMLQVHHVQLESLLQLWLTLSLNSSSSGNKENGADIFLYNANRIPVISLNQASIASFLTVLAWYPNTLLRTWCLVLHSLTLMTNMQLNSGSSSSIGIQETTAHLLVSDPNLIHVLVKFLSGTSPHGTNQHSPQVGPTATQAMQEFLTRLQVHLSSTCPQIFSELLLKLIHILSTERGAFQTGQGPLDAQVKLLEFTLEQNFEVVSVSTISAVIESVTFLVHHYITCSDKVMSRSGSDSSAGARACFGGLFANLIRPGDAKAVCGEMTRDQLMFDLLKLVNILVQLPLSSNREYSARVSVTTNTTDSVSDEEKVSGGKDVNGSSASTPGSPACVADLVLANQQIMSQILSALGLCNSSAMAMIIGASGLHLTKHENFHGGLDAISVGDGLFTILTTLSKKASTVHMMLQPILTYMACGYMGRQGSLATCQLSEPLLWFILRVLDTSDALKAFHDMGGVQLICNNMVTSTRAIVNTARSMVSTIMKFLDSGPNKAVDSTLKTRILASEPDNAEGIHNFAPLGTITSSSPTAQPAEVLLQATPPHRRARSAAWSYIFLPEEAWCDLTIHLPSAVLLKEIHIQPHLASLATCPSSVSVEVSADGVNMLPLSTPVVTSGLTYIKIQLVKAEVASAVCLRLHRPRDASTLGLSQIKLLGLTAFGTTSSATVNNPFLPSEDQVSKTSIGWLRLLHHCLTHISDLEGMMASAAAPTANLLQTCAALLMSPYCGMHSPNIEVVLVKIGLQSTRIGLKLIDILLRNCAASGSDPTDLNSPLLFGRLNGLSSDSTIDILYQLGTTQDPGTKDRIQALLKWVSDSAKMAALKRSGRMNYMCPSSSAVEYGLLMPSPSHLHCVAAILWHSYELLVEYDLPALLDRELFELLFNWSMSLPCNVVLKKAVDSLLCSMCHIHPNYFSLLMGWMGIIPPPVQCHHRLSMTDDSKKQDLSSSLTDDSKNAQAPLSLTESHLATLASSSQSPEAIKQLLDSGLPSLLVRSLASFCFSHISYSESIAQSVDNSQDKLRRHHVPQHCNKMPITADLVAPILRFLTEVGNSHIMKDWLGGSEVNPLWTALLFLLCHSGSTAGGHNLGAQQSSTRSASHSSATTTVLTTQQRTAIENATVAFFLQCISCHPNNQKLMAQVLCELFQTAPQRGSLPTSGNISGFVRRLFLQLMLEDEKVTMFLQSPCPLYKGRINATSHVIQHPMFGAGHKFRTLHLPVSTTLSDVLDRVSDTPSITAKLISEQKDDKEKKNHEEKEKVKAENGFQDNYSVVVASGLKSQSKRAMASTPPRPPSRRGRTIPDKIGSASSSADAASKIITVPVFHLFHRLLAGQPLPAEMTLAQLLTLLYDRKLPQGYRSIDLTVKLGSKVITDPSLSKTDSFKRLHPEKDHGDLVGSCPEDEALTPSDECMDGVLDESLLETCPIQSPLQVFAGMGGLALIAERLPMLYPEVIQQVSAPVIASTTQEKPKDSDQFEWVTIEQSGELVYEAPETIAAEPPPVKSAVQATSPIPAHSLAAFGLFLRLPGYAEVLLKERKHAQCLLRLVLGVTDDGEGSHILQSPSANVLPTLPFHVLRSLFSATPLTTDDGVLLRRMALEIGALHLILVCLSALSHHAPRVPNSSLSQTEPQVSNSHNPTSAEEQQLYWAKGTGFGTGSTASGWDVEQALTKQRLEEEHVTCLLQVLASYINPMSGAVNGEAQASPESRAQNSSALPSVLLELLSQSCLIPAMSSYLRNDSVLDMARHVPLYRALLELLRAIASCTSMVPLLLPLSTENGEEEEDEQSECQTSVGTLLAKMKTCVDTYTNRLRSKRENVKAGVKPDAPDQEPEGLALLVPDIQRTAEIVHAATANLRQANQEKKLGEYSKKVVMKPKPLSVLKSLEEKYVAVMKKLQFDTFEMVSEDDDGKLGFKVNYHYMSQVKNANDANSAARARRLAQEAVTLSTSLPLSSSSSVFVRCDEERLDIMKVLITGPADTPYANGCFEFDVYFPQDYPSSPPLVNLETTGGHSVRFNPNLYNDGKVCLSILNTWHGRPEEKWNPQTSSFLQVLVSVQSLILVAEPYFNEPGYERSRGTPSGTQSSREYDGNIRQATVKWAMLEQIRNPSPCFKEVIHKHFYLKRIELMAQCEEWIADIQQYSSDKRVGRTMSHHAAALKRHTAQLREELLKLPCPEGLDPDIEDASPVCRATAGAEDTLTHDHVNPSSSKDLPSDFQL

In the case of “3×FLAG-tagged full-length mouse BIRC6, O88738 1-4882”, in series [1], the stoichiometry N came out at 2.

B1: Smac/DIABLO, endogenous, co-purified with FLAG-BIRC6 from HEK293F cells (natural protein)
chain: AVPIAQKSEPHSLSSEALMRRAVSLVTDSTSTFLSQTTYALIEAITEYTKAVYTLTSLYRQYTSLLGKMNSEEEDEVWQVIIGARAEMTSKHQEYLKLETTWMTAVGLSEMAAEAAYQTGADQASITARNHIQLVKLQVEEVHQLSRKAETKLAEAQIEELRQKTQEEGEERAESEQEAYLRED
Regarding B1, the binding result in series [2] is recorded as “binds”. For the same molecule, the “stoichiometry N” value in the series “cryo-EM structure” was 2.
